Assay results reported in the DeepSol protein solubility set.

Assay: soluble on expression in E. coli; label from the status in PepcDB or PDB records
With “MGSDKIHHHHHHLRMSRIQARLLQAIVRPALKTNLLKHAAWRVVLKLRNEFAHAVPPVELETTFDENIRILTSLSDHIESQVFWQGFQEADEGVILLLKRFLPSDGSFIDVGANIGTFTLVAAHRAVRGQVHAFEPSAHHFARLAHNVELNDFKNVALNRKGLYDQPGEAVLFLPSQTGEMNNSGAASLYTSALEETRQVSEAVSLIRLDDYVREKSIGRVDIIKIDIEGAELKALEGARETIARFRPLVFMELDLDNLERAERSPEEVLQYWKSLNYEVSIILLTGETVPVTSPKEFGLHQNLQCRPF” the “soluble on expression in E. coli” value was “not soluble”. In the case of “MGSDKIHHHHHHMTEGKSMFVGFDYGSANCAIGVMIDDAVSLLPLSTHSDFMPSTLYAMDRELIAEAVYQGLPEHLKAEYSHLRSSQLMRAKLMRHELDLSPNEQAVFVGQAAIDAYLDMPEEGFYVRSPKSFLGANGLRVEQIALFEDIVTLMMQHVKTLADKALNAKSLSSASHAVIGRPVNFQGIGGEDSNQQAETILRLAATRSGFTDVRFLFEPLAAGMDFESNLSDDNTVLVVDVGGGTTDCSVVKMGPSYIKQQDRSPDCFGHSGQRIGGNDLDIALAMTGLMPSFGADTLMINGKPMPRTPFWNAVAVNDISAQRDFVSLPSRKLVEQLIKEAQQPELLVRLQKVQKNQMSYQVVREAEAAKISLSDNDTIQCSLDFIEKGLLVPLTAAQFEQAINDPLAKVEALMKQAMQTATAKAEQQDCDMPTTPDIVYVTGGTARSPAIYNKIASVYPNAKVVVGDHFGSVTAGLTRCAEKCL”, the “soluble on expression in E. coli” value is reported as “not soluble”. For “MNNSIPERFIFQCALFKNLEREVFMTHGYVDSHIIDQALRLRLKDETSVILSDLYLQILQYIEMHKTTLTDIIINDRESVLSAAALEHHHHHH”, the “soluble on expression in E. coli” value was “not soluble”. For “MKRPDYRTLQALDAVIRERGFERAAQKLCITQSAVSQRIKQLENMFGQPLLVRTVPPRPTEQGQKLLALLRQVELLEEEWLGDEQTGSTPLLLSLAVNADSLATWLLPALAPVLADSPIRLNLQVEDETRTQERLRRGEVVGAVSIQHQALPSCLVDKLGALDYLFVSSKPFAEKYFPNGVTRSALLKAPVVAFDHLDDMHQAFLQQNFDLPPGSVPCHIVNSSEAFVQLARQGTTCCMIPHLQIEKELASGELIDLTPGLFQRRMLYWHRFAPESRMMRKVTDALLDYGHKVLRQD”, the “soluble on expression in E. coli” value was “soluble”. In the case of “MGSDKIHHHHHHMTRLEIVDSKLRQAKKTEEYFNAIRTNIQFSGKENKILAITSVREGEGKSTASTSLALSLAQAGFKTLLIDADTRNSVMSGTFKATGTIKGLTNYLSGNADLGDIICETNVPRLMVVPSGKVPPNPTALLQNAYFNKMIEAIKNIFDYIIIDTPPIGLVVDAAIIANACDGFILVTQAGRIKRNYVEKAKEQMEQSGSKFLGIILNKVNESVATYGDYGNYGKRDRKRK”, the “soluble on expression in E. coli” value is reported as “not soluble”. In the case of “MGHHHHHHSHGLNSSRNLLIISQKSDQILNYITNGADRGATKIPVLGGHTGHSQNMIMTTLSTHEVPKVQEEIQKIDETAFIVIIPASTVMGRGFSLQKDYKSVPNDFINP”, the “soluble on expression in E. coli” value is reported as “soluble”. For “MSLDVGGSERIPSEMRAWEVTSPAPIDSSPSPIHFVKHPVPVPKTSEVLVRVISCGICHTDLHVAEGDLPVHHPHVIPGHEIIGRVVANGPQAGRFNLGDRIGVPWLRWTCGVCTYCRSGKENLCPNSLYTGWDHDGGYAEYVTVPEGFAYRIPSAFNSVTAAPLLCAGIIGYHAFRRANVPAGGRLGLYGFGGSAHLAAQIAIAQGIEVHVFTRGKDAQRFALELGAASAQGVYDPSPVSLDSSILFAPVGDIVPKALENLAAGGTLALAGIHLTDVPSLNYQNHLFHEKVLTSVESNTRRDGEEFLTLADRLKIHPKTTEYPFEKADEALRHLSHGDMQGACVLRISEGHHHHHH”, the “soluble on expression in E. coli” value was “not soluble”. In the case of “MSLAFVPHVPRHSRGDNPPSASTASPAVLTLTGERTIPDLDIENYWFRRHQVVYQRLAPRCTARDVLEAGCGEGYGADLIACVARQVIAVDYDETAVAHVRSRYPRVEVMQANLAELPLPDASVDVVVNFQVIEHLWDQARFVRECARVLRGSGLLMVSTPNRITFSPGRDTPINPFHTRELNADELTSLLIDAGFVDVAMCGLFHGPRLRDMDARHGGSIIDAQIMRAVAGEGHHHHHH”, the “soluble on expression in E. coli” value is reported as “not soluble”. For “MQKVEGIIFDMDGVLFDSERISLEFWMETFEKYGYTMTKEIYTSVMGRNRKGIIEGLTDIYDSSVPIIDLYDEKTKNMIEFMERKGAPIKLGVNELISFLKENGYKMAVATSTKRERAVKRLAKANLKDYFDAIVCGDDVVNSKPNPEIFLKAAKKINVNPKNCIVIEDSPMGVEAAYNGGIRCINVPDLKEPDEQIKSQSHKILENLLEVREYLKSLNSKECHNL”, the “soluble on expression in E. coli” value was “not soluble”. For “MAHHHHHHMWNGPTYAIARVRWDSVVRTFSACGTSLASPQRRFSSWFEEQPGGGQHNVEDKAVAAFAVNADRLEKGKTIIKKKAHGIPFHISDAEAVDNVCRHHGAAVEIHSVERFLMPFWLTETSAAGTFKADLLQHDRMNITQPHYFLWLEGPRYQFNYPFGEYMPMNQVSASYREPLKVVERCLTGTHVPSMLLSRFELLHEVEKMEHRPTVIPFTMSTVTALSVIERRVNRRVVLDRIDRELRKFHGSFLKSNVSVMSLQMVASSIRPAFLPLFKLTVSTISHSTPVPAFICGATGKVVGPVLHVQRRKRLGLAAAAAVGTLLSLAPLVEPGVATAAALAVVASSGFVQQAVQRARFVREQAHQMAQLKSVGVLNLVADSTGYRWTPEEEEKEEYEYREELRRQARARDAFEQRVKEEAARDRVRAHGTHFDPKNRRRTDLADVDPRGYYELLGLKGKEFSATAKDITKAFREAVRIHHPDVHPEGEAENKKRHMQRIIEAYKILHNPKTKKFYDSGEMSGKSQETS”, the “soluble on expression in E. coli” value was “not soluble”. With “MTKKYDLHCHSTASDGVLSPTELVHRAYAQGVNVLALCDHDTIAGIDEAEIAAKEVGIELITGVEISTNWEGRGIHIVGLNFDKTHPKMTALLQSQKALREKRAVEIGDKLEKAGIPNAYDGAKALADGEVTRAHYARYLVQIGKVSNDGQAFKRYLGQGKSAFVKAEWADIPTAIETIHAAGGIAIIAHPLRYNMTGKWVRKLIVDFKAWGGDGMEMADCGQTKDQRQMLARWAKEFDLQGSVGSDFHFPCGWIELGKNLDLVDSVIPVWEKF” the “soluble on expression in E. coli” value was “not soluble”. With “MGSDKIHHHHHHMEDIVEALKLAVTNLPEDVALALKNAYEREDYEIAKYNLEIMLRAVKTSKYYYVPLCQDTGTPIFFVETDGTWNVKEIYETIAEAVKRATDEIPLRPNAICLLSGKVVGNVPEIHIEPGKRNRISILIKGGGSENCSALFPLTPGDWFEGVKKKIIDHIRSCGGKPCPPIIVGIGIASPAERAITLAKKSLFRKIGERHEKLGWLEEEILEEINFLDIGPMGLGGKTTALDVKIEVGERHPASFIVGIAIQCWAHRRAFIEEKEDGEVVIWQ” the “soluble on expression in E. coli” value was “not soluble”. In the case of “MQKELINEIIGEVKPKAIALFGSQAKGKAGKFSDYDLLIITKDEESRNKAEKFEKGKVEIHALTMRTALELIHKGDPFFTQIVKECKPIYGEFYIKFLREVAENVGKSKVVA”, the “soluble on expression in E. coli” value is reported as “not soluble”. For “MAHHHHHHMCVHTFVRMNAWMCSSLSITQQNTITPPHYMQNSAFRVASLLQSRHRRGICDEGESTLAKLTQGVEMFLQHAADVPPVMLEKLSEVGDADTSTNGCSERHDDVDESMDEAEVHLSVVAGVLEPREMPKNVSTMSGLLLPTADNRKALERQKVEEAQAMLNLLAALTANNKKENTIGALTGTSEAEVDDESTTTSDESVVICYADELESDTTSSCSEADAQQEPQRSARIIELN”, the “soluble on expression in E. coli” value was “not soluble”. With “MPGHTSWDATFLEPAPPLPHPSECGQPCVSGQSQMFQHRTTNAQGPPPNRPMPRPPAGMPMMTSSHEHDYTNDYEDPEEMARSRGEGFSNHLLIKTTPPPQPHPNFNSYEMSMSQQRRSQQHQQPMAPPLSDCWGSGVHDSGVLHKNADGAYYIPSGSCKF” the “soluble on expression in E. coli” value was “not soluble”. For “MDPSSENNSPMVSPNDDKIVKITVSSVMQGVKQIVVEMKDKETVSILKNRIEQETEVLTNRQVLLFKGMELKDNNKTMTDCGINSDAKITMNVKMSTGIVTNPTTTDILLMMPPIFPTNQDQLRKEIKGMHTVHRKPKKMSGIDANASLWTPEKQMENEFTRNRMKTLLRRKKHAPILSGTPVDSEIGSAQTFSPVATPPGELSSPSTVSSHVSSGSEPESDAEVVTEKELKLFFDPPETIEEHKQCRRSMVLAPSSEEELLENLKKFEAERKTKCNTCFKKLSAAQQTMHCKCLRIFCDRHRHPKNHTCVIDYKQDGRNKLKKNNSKVGDGGWRKAKFES”, the “soluble on expression in E. coli” value was “not soluble”.
